± gives the standard deviation of the averaged measurements.
Assay: total protein half-life in vivo (active degradation + dilution); higher = more stable protein
[1] = E. coli NCM3722 delta-clpP delta-lon delta-hslV, growth: N-lim chemostat, doubling time 6 h
[2] = E. coli NCM3722 delta-clpP, growth: N-lim chemostat, doubling time 6 h
[3] = E. coli NCM3722 delta-hslV, growth: N-lim chemostat, doubling time 6 h
[4] = E. coli NCM3722 delta-lon, growth: N-lim chemostat, doubling time 6 h
[5] = E. coli NCM3722 delta-smpB, growth: N-lim chemostat, doubling time 6 h
[6] = wild type E. coli NCM3722, growth: C-lim chemostat, doubling time 3 h
[7] = wild type E. coli NCM3722, growth: C-lim chemostat, doubling time 6 h
[8] = wild type E. coli NCM3722, growth: C-lim chemostat, doubling time 12 h
[9] = wild type E. coli NCM3722, growth: N-lim chemostat, doubling time 6 h
[10] = wild type E. coli NCM3722, growth: N-lim chemostat, doubling time 12 h
[11] = wild type E. coli NCM3722, growth: P-lim chemostat, doubling time 6 h
[12] = wild type E. coli NCM3722, growth: P-lim chemostat, doubling time 12 h

Sequence	total protein half-life in vivo [1]	total protein half-life in vivo [2]	total protein half-life in vivo [3]	total protein half-life in vivo [4]	total protein half-life in vivo [5]	total protein half-life in vivo [6]	total protein half-life in vivo [7]	total protein half-life in vivo [8]	total protein half-life in vivo [9]	total protein half-life in vivo [10]	total protein half-life in vivo [11]	total protein half-life in vivo [12]
MKHSVSVTCCALLVSSISLSYAAEVPSGTVLAEKQELVRHIKDEPASLDPAKAVGLPEIQVIRDLFEGLVNQNEKGEIVPGVATQWKSNDNRIWTFTLRDNAKWADGTPVTAQDFVYSWQRLVDPKTLSPFAWFAALAGINNAQAIIDGKATPDQLGVTAVDAHTLKIQLDKPLPWFVNLTANFAFFPVQKANVESGKEWTKPGNLIGNGAYVLKERVVNEKLVVVPNTHYWDNAKTVLQKVTFLPINQESAATKRYLAGDIDITESFPKNMYQKLLKDIPGQVYTPPQLGTYYYAFNTQKGPTADQRVRLALSMTIDRRLMTEKVLGTGEKPAWHFTPDVTAGFTPEPSPFEQMSQEELNAQAKTLLSAAGYGPQKPLKLTLLYNTSENHQKIAIAVASMWKKNLGVDVKLQNQEWKTYIDSRNTGNFDVIRASWVGDYNEPSTFLTLLTSTHSGNISRFNNPAYDKVLAQASTENTVKARNADYNAAEKILMEQAPIAPIYQYTNGRLIKPWLKGYPINNPEDVAYSRTMYIVKH	5.12 ± 0.18 h	5.6 ± 0.17 h	6.96 ± 0.47 h	6.18 ± 0.087 h	5.63 ± 0.21 h	3.26 ± 0.29 h	6.21 ± 0.43 h	10.1 ± 0.25 h	6.41 ± 0.44 h	12.1 ± 0.92 h	5.86 ± 0.16 h	12.4 ± 1.1 h
MKIATIKTGLASLAMLPGLVMAAPAVADKADNAFMMICTALVLFMTIPGIALFYGGLIRGKNVLSMLTQVTVTFALVCILWVVYGYSLAFGEGNNFFGNINWLMLKNIELTAVMGSIYQYIHVAFQGSFACITVGLIVGALAERIRFSAVLIFVVVWLTLSYIPIAHMVWGGGLLASHGALDFAGGTVVHINAAIAGLVGAYLIGKRVGFGKEAFKPHNLPMVFTGTAILYIGWFGFNAGSAGTANEIAALAFVNTVVATAAAILGWIFGEWALRGKPSLLGACSGAIAGLVGVTPACGYIGVGGALIIGVVAGLAGLWGVTMLKRLLRVDDPCDVFGVHGVCGIVGCIMTGIFAASSLGGVGFAEGVTMGHQLLVQLESIAITIVWSGVVAFIGYKLADLTVGLRVPEEQEREGLDVNSHGENAYNA	5.75 ± 1.4 h	4.24 ± 0.22 h	5.51 ± 1.2 h	5.81 ± 2 h	4.6 ± 0.47 h				4.78 ± 0.62 h	8.59 ± 0.8 h		
MKIDLNADLGEGCASDAELLTLVSSANIACGFHAGDAQIMQACVREAIKNGVAIGAHPSFPDRENFGRSAMQLPPETVYAQTLYQIGALATIARAQGGVMRHVKPHGMLYNQAAKEAQLADAIARAVYACDPALILVGLAGSELIRAGKQYGLTTREEVFADRGYQADGSLVPRSQSGALIENEEQALAQTLEMVQHGRVKSITGEWATVAAQTVCLHGDGEHALAFARRLRSAFAEKGIVVAA	5 ± 0.5 h		3.66 h	5.55 ± 2 h	3.12 ± 0.19 h	2.4 ± 0.35 h		7.69 ± 0.61 h	3.911 ± 0.035 h	5.79 ± 0.9 h	4.55 ± 0.18 h	7.81 ± 1.7 h
MKIGTQNQAFFPENILEKFRYIKEMGFDGFEIDGKLLVNNIEEVKAAIKETGLPVTTACGGYDGWIGDFIEERRLNGLKQIERILEALAEVGGKGIVVPAAWGMFTFRLPPMTSPRSLDGDRKMVSDSLRVLEQVAARTGTVVYLEPLNRYQDHMINTLADARRYIVENDLKHVQIIGDFYHMNIEEDNLAQALHDNRDLLGHVHIADNHRYQPGSGTLDFHALFEQLRADNYQGYVVYEGRIRAEDPAQAYRDSLAWLRTC	5.87 ± 0.64 h											
MKIIILGAGQVGGTLAENLVGENNDITVVDTNGERLRTLQDKFDLRVVQGHGSHPRVLREAGADDADMLVAVTSSDETNMVACQVAYSLFNTPNRIARIRSPDYVRDADKLFHSDAVPIDHLIAPEQLVIDNIYRLIEYPGALQVVNFAEGKVSLAVVKAYYGGPLIGNALSTMREHMPHIDTRVAAIFRHDRPIRPQGSTIVEAGDEVFFIAASQHIRAVMSELQRLEKPYKRIMLVGGGNIGAGLARRLEKDYSVKLIERNQQRAAELAEKLQNTIVFFGDASDQELLAEEHIDQVDLFIAVTNDDEANIMSAMLAKRMGAKKVMVLIQRRAYVDLVQGSVIDIAISPQQATISALLSHVRKADIVGVSSLRRGVAEAIEAVAHGDESTSRVVGRVIDEIKLPPGTIIGAVVRGNDVMIANDNLRIEQGDHVIMFLTDKKFITDVERLFQPSPFFL [P0AGI8]	6.84 ± 1.2 h	4.97 ± 0.52 h	5.96 ± 0.17 h	5.31 ± 0.37 h	5.41 ± 0.16 h	3.056 ± 0.029 h	6.56 ± 0.57 h	11.5 ± 0.3 h	5.839 ± 0.044 h	12 ± 0.56 h	6.38 ± 0.11 h	13.2 ± 0.66 h
MKIILLFLAALASFTVHAQPPSQTVEQTVRHIYQNYKSDATAPYFGETGERAITSARIQQALTLNDNLTLPGNIGWLDYDPVCDCQDFGDLVLESVAITQTDADHADAVVRFRIFKDDKEKTTQTLKMVAENGRWVIDDIVSNHGSVLQAVNSENEKTLAALASLQKEQPEAFVAELFEHIADYSWPWTWVVSDSYRQAVNAFYKTTFKTANNPDEDMQIERQFIYDNPICFGEESLFSRVDEIRVLEKTADSARIHVRFTLTNGNNEEQELVLQRREGKWEIADFIRPNSGSLLKQIEAKTAARLKQ	5.65 h	5.01 ± 0.93 h		6.249 ± 0.025 h	5.65 ± 0.12 h	3.56 h	> 8 h	11.1 ± 0.5 h	6.33 ± 0.27 h	12.3 ± 1.8 h	6.45 h	11.28 ± 0.1 h
MKIISFVLPCLLVLAGCSTPSQPEAPKPPQIGMANPASVYCQQKGGTLIPVQTAQGVSNNCKLPGGETIDEWALWRRDHPAGEK		> 8 h		6.51 h	5.85 h	2.68 h		15.8 ± 0.2 h		14.4 ± 0.2 h	6.22 h	

From the supplement of paper PMC11246515
